# Laboratory results reported in patent publication US20260000780A1, “B-LYMPHOCYTE SPECIFIC AMATOXIN ANTIBODY CONJUGATES” (priority 2021, published 2026).
# B1: chHH1-HDP-LALA-D265C: Unconjugated anti-CD37 antibody, heavy chain SEQ ID No. 11 (234Ala, 235Ala, 265Cys), light chain SEQ ID No. 12 (antibody)
# heavy: EIQLQQSGPELVKPGASVKVSCKASGYSFTDYNMYWVKQSHGKSLEWIGYIDPYNGDTTYNQKFKGKATLTVDKSSSTAFIHLNSLTSEDSAVYYCARSPYGHYAMDYWGQGTSVTVSSASTKGPSVFPLAPSSKSTSGGTAALGCLVKDYFPEPVTVSWNSGALTSGVHTFPAVLQSSGLYSLSSVVTVPSSSLGTQTYICNVNHKPSNTKVDKKVEPKSCDKTHTCPPCPAPEAAGGPSVFLFPPKPKDTLMISRTPEVTCVVVCVSHEDPEVKFNWYVDGVEVHNAKTKPREEQYNSTYRVVSVLTVLHQDWLNGKEYKCKVSNKALPAPIEKTISKAKGQPREPQVYTLPPSREEMTKNQVSLTCLVKGFYPSDIAVEWESNGQPENNYKTTPPVLDSDGSFFLYSKLTVDKSRWQQGNVFSCSVMHEALHNHYTQKSLSLSPGK
# light: DIVMTQSHKLLSTSVGDRVSITCKASQDVSTAVDWYQQKPGQSPKLLINWASTRHTGVPDRFTGSGSGTDYTLTISSMQAEDLALYYCRQHYSTPFTFGSGTKLEIKRTVAAPSVFIFPPSDEQLKSGTASVVCLLNNFYPREAKVQWKVDNALQSGNSQESVTEQDSKDSTYSLSSTLTLSKADYEKHKVYACEVTHQGLSSPVTKSFNRGEC
# modifications: Heavy chain of chHH1-HDP-LALA-D265C comprising amino acid substitutions L235A, L235A and D265C; Light chain of chHH1-HDP, chHH1-HDP-265C, chHH1-HDP-LALA-D265C, respectively
# What was measured:
# [1] = tested on: Raji cell line (CD37-positive); assay: FACS binding / antibodies bound per cell (BD Quantibrite PE), Raji; design: species or system human
# Procedure: (§1) Binding of the anti-CD37 monoclonal antibody chHH1-HDP-LALA-D265C to the CD37-positive B-cell leukemia (B-CLL) cell lines MEC-1 and MEC-2 as well as to the human Burkitt lymphoma cell lines Raji and Ramos and to the human B-cell precursor leukemia cell line Nalm-6, which is known to be CD37-negative, were tested by fluorescence-activated cell sorting (FACS) analysis.
# (§2) In order to estimate antibodies bound per cell (ABC) by flow cytometry, BD Quantibrite PE tubes (Becton Dickinson) were used, which were run at the same instrument settings as the assay, so that the FL2 axis can be converted into the number of PE molecules bound per cell. By using known ratios of PE to antibodies, PE molecules per cell can then be converted to the number of antibodies per cell (Iyer et al. 1997).
# [2] = tested on: Nalm-6 cell line (CD37-negative); assay: FACS binding / antibodies bound per cell (BD Quantibrite PE), Nalm-6; design: species or system human
# Procedure: as §1, §2
# [3] = tested on: MEC-2 cell line (CD37-positive); assay: FACS binding / antibodies bound per cell (BD Quantibrite PE), MEC-2
# Procedure: as §1, §2
# [4] = tested on: Ramos cell line (CD37-positive); assay: FACS binding / antibodies bound per cell (BD Quantibrite PE), Ramos; design: species or system human
# Procedure: as §1, §2
# [5] = target: T1, CD37 (Homo sapiens, UniProt P11049); assay: Biacore binding assay (surface-plasmon resonance); settings: CD37 construct Ala 113 to Asn 240 with Fc fusion tag, 31.25 nM to 500 nM
# T1 construct: A CD37 construct comprising amino acids Ala 113 to Asn 240, expressed in HEK293 cells; Fc fusion tag (Thr 106 to Lys 330); host or cells: HEK293
# T1 sequence (P11049 113-240): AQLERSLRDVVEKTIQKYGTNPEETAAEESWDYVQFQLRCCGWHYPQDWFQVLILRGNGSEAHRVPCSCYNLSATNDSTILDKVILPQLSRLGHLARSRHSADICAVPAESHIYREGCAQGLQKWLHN
# Procedure: Binding of the monoclonal antibody chHH1-HDP-LALA-D265C to CD37 was confirmed by surface-plasmon resonance (Biacore) interaction analysis. 0.1 μM chHH1-HDP-LALA-D265C was captured using anti-Fab capture (FAB2G) biosensors. Alternatively, biotinylated monoclonal antibody chHH1-HDP-LALA-D265C was captured by streptavidin (SA) sensors. A CD37 construct comprising amino acids Ala 113 to Asn 240, expressed in HEK293 cells with an Fc fusion tag moiety (Thr 106 to Lys 330), was added to the sensor at concentrations of 31.25 nM to 500 nM (1:2 dilution steps), and binding of the CD37 construct was assessed.
# [6] = tested on: Raji-Luc tumor xenograft; assay: Disseminated Raji-Luc tumor xenograft model; type: in vivo, CB17 Scid mice; settings: 3.75 mg/kg (unconjugated antibody); day 89 after treatment
# Procedure: Cytotoxic efficacy studies in vivo were performed using various anti-CD37 antibody amatoxin conjugates in a disseminated Raji-Luc tumor xenograft model over 89 days of treatment.
# Tumor cell inoculation was done on day-3 by i.v. injection of 2.5×10^6 Raji-Luc cells in CB17 Scid mice. Treatment was performed on day 0 by single dose i.v. injection at maximum tolerable dose (MTD) of 1/16 and MTD of 1/64 doses of cynomolgus MTD, respectively. Readout of the study was body weight, bioluminescence and survival. Results are shown in FIG. 10 (body weight), FIG. 11 (bioluminescence) and FIG. 12 (survival) at day 89 after treatment. All groups treated with conjugate gained body weight as normal, in contrast to the control group.
# [7] = tested on: MEC-1 cell line (CD37-positive); assay: FACS binding / antibodies bound per cell (BD Quantibrite PE), MEC-1
# Procedure: as §1, §2
# [8] = tested on: cynomolgus CD37; assay: Cross reactivity with cynomolgus PBMCs by flow cytometry; type: binding
# Procedure: Cross reactivity of the anti-CD37 chHH1-HDP-LALA-D265C with cynomolgus peripheral blood mononuclear cells (PBMCs) was assessed by flow cytometry. As control, human PBMCs were stained using the same set of antibodies. FACS analysis was done according to a standard protocol. In brief: PBMCs were resuspend in 300 μL staining medium (3.3×10^5 cells/50 μl staining medium). 50 μl cell suspension for each sample (=3.3×10^5 cells per sample) were piptted into one well of an U-well plate. 50 μl of pre-diluted isotype and antibody solutions were added to the samples in each well and incubated for 30 min on ice, followed by the addition of 100 μl ice-cold PBS and centrifugation at 4° C., 300 g, 6 min. The resulting supernatant was discarded and cells were washed with 200 μl ice-cold PBS, pH 7.4 followed by centrifugation at 4° C., 300 g, 6 min. The wash step was repeated once. The supernatant was discarded and cells resuspended in 100 μl of the secondary antibody solution. For the untreated sample (control) 100 μl staining medium were used. Cells were incubated for 30 min on ice protected from light. 100 μl ice-cold PBS were added and cells were centrifuge at 4° C., 300 g, 6 min. The supernatant was discarded and cells were washed twice with 200 μl ice-cold PBS, pH 7.4 and centrifuged at 4° C., 300 g, 6 min. […]
molecule,measurement,setting,value
B1,binding by FACS analysis,[1],bind strongly
same,antibodies bound per cell (ABC) value,[1]; flow cytometry,"32,500"
same,binding by FACS analysis,[2]; Nalm-6 (CD37-negative),No binding was detected
same,antibodies bound per cell (ABC) value,"[2]; Nalm-6, flow cytometry",42
same,binding by FACS analysis,[3],bind strongly
same,antibodies bound per cell (ABC) value,[3]; flow cytometry,"137,200"
same,binding by FACS analysis,[4],bind strongly
same,antibodies bound per cell (ABC) value,[4]; flow cytometry,"31,500"
same,binding to CD37 by surface-plasmon resonance (Biacore),[5],confirmed
same,Alive animals,[6],0/10
same,binding by FACS analysis,[7],bind strongly
same,antibodies bound per cell (ABC) value,[7]; flow cytometry,"33,004"
same,specific binding to cynomolgus CD37,[8],does not exhibit specific binding
